According to patent publication US20170240595:
Bridges are numbered along the chain shown (N, C = ends). Where no end group is shown, it is not given here. [ ]: non-standard residue; d: D form. 1Nal = N[C@@H](Cc1cccc2ccccc12)C(=O)O; 2Nal = N[C@@H](Cc1ccc2ccccc2c1)C(=O)O; d2Nal = N[C@H](Cc1ccc2ccccc2c1)C(=O)O; hPhe = N[C@@H](CCc1ccccc1)C(=O)O; Cha = N[C@@H](CC1CCCCC1)C(=O)O; dCha = N[C@H](CC1CCCCC1)C(=O)O; dTle = CC(C)(C)[C@@H](N)C(=O)O; Nle = CCCC[C@H](N)C(=O)O; Apn = not defined here; Bal = not defined here; Ahx = NCCCCCC(=O)O; GABA = NCCCC(=O)O; βAla = NCCC(=O)O

Molecular target: hMC4-R (human), P32245
Assay: competition
Conditions: modification not given

Chain of hMC4-R (human), P32245 (P32245 whole entry): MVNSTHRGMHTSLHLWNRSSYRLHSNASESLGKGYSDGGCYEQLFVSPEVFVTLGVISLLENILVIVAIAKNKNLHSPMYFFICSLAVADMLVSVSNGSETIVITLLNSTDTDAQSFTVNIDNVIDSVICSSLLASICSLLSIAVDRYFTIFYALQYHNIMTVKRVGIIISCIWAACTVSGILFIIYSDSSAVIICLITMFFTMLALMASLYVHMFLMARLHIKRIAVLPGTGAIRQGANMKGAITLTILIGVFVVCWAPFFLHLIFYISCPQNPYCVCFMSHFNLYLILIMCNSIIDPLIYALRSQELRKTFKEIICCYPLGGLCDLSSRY

| Binder | Ki |
| --- | --- |
| Ac-C[dA]H[dF]R[2Nal]AC-NH2 (disulfide 1-8; SMILES CC(=O)N[C@H]1CSSC[C@@H](C(N)=O)NC(=O)[C@H](C)NC(=O)[C@H](Cc2ccc3ccccc3c2)NC(=O)[C@H](CCCNC(=N)N)NC(=O)[C@@H](Cc2ccccc2)NC(=O)[C@H](Cc2c[nH]cn2)NC(=O)[C@@H](C)NC1=O) [Ac-c(Cys-D-Ala-His-D-Phe-Arg-2-Nal-Ala-Cys)-NH2] | 40.7 nM |
| Ac-[hPhe]DH[dF]RW[GABA]K-NH2 (lactam 2-8) [Ac-hPhe-c(Asp-His-D-Phe-Arg-Trp-Gaba-Lys)-NH2] | 3.37 nM |
| Ac-[Nle]C[dI]H[dF]RWC-NH2 (disulfide 2-8) [Ac-Nle-c(Cys-D-Ile-His-D-Phe-Arg-Trp-Cys)-NH2] | 9 nM |
| Ac-[Nle]C[dTle]H[dF]RWC-NH2 (disulfide 2-8) [Ac-Nle-c(Cys-D-Tle-His-D-Phe-Arg-Trp-Cys)-NH2] | 11.2 nM |
| Ac-[Nle]DH[dF]RW[Apn]K-NH2 (lactam 2-8; reading uncertain) [Ac-Nle-c(Asp-His-D-Phe-Arg-Trp-Apn-Lys)-NH2] | 11.1 nM |
| Ac-[Nle]C[dA]H[d2Nal]R[Bal]C-NH2 (disulfide 2-8; reading uncertain) [Ac-Nle-c(Cys-D-Ala-His-D-2-Nal-Arg-Bal-Cys)-NH2] | 16.6 nM |
| Ac-[Nle]C[dA]H[d2Nal]R[1Nal]C-NH2 (disulfide 2-8; SMILES CCCC[C@H](NC(C)=O)C(=O)N[C@H]1CSSC[C@@H](C(N)=O)NC(=O)[C@H](Cc2cccc3ccccc23)NC(=O)[C@H](CCCNC(=N)N)NC(=O)[C@@H](Cc2ccc3ccccc3c2)NC(=O)[C@H](Cc2c[nH]cn2)NC(=O)[C@@H](C)NC1=O) [Ac-Nle-c(Cys-D-Ala-His-D-2-Nal-Arg-1-Nal-Cys)-NH2] | 3.07 nM |
| Ac-[Nle]C[dL]H[dF]RWC-NH2 (disulfide 2-8; SMILES CCCC[C@H](NC(C)=O)C(=O)N[C@H]1CSSC[C@@H](C(N)=O)NC(=O)[C@H](Cc2c[nH]c3ccccc23)NC(=O)[C@H](CCCNC(=N)N)NC(=O)[C@@H](Cc2ccccc2)NC(=O)[C@H](Cc2c[nH]cn2)NC(=O)[C@@H](CC(C)C)NC1=O) [Ac-Nle-c(Cys-D-Leu-His-D-Phe-Arg-Trp-Cys)-NH2] | 4.13 nM |
| Ac-[Nle]C[dV]H[dF]RWC-NH2 (disulfide 2-8) [Ac-Nle-c(Cys-D-Val-His-D-Phe-Arg-Trp-Cys)-NH2] | 10.1 nM |
| Ac-[2Nal]CH[dF]RW[GABA]C-NH2 (disulfide 2-8; SMILES CC(=O)N[C@@H](Cc1ccc2ccccc2c1)C(=O)N[C@H]1CSSC[C@@H](C(N)=O)NC(=O)CCCNC(=O)[C@H](Cc2c[nH]c3ccccc23)NC(=O)[C@H](CCCNC(=N)N)NC(=O)[C@@H](Cc2ccccc2)NC(=O)[C@H](Cc2c[nH]cn2)NC1=O) [Ac-2-Nal-c(Cys-His-D-Phe-Arg-Trp-Gaba-Cys)-NH2] | 2.94 nM |

These reach a lower Ki. Values come first.

| Ki | Binder |
| --- | --- |
| 0.375 nM | Ac-[Nle]CH[d2Nal]RW[GABA]C-NH2 (disulfide 2-8) [Ac-Nle-c(Cys-His-D-2-Nal-Arg-Trp-Gaba-Cys)-NH2] |
| 0.894 nM | Ac-[Nle]CH[dF]RW[Apn]C-NH2 (disulfide 2-8; reading uncertain) [Ac-Nle-c(Cys-His-D-Phe-Arg-Trp-Apn-Cys)-NH2] |
| 0.47 nM | [Nle]CH[dF]RW[GABA]C-NH2 (disulfide 2-8) [Nle-c(Cys-His-D-Phe-Arg-Trp-Gaba-Cys)-NH2] |
| 0.85 nM | [Nle]CH[dF]RW[Apn]C-NH2 (disulfide 2-8; reading uncertain) [Nle-c(Cys-His-D-Phe-Arg-Trp-Apn-Cys)-NH2] |
| 1.04 nM | Ac-[Nle]DH[dF]RW[GABA]K-NH2 (lactam 2-8) [Ac-Nle-c(Asp-His-D-Phe-Arg-Trp-Gaba-Lys)-NH2] |
| 2.53 nM | Ac-[Nle]C[dA]H[d2Nal]R[2Nal]C-NH2 (disulfide 2-8; SMILES CCCC[C@H](NC(C)=O)C(=O)N[C@H]1CSSC[C@@H](C(N)=O)NC(=O)[C@H](Cc2ccc3ccccc3c2)NC(=O)[C@H](CCCNC(=N)N)NC(=O)[C@@H](Cc2ccc3ccccc3c2)NC(=O)[C@H](Cc2c[nH]cn2)NC(=O)[C@@H](C)NC1=O) [Ac-Nle-c(Cys-D-Ala-His-D-2-Nal-Arg-2-Nal-Cys)-NH2] |
| 0.617 nM | Ac-[Nle]DH[dF]RW[βAla]K-NH2 (lactam 2-8; SMILES CCCC[C@H](NC(C)=O)C(=O)N[C@H]1CC(=O)NCCCC[C@@H](C(N)=O)NC(=O)CCNC(=O)[C@H](Cc2c[nH]c3ccccc23)NC(=O)[C@H](CCCNC(=N)N)NC(=O)[C@@H](Cc2ccccc2)NC(=O)[C@H](Cc2c[nH]cn2)NC1=O) [Ac-Nle-c(Asp-His-D-Phe-Arg-Trp-β-Ala-Lys)-NH2] |
| 0.884 nM | Ac-[Cha]CH[dF]RW[GABA]C-NH2 (disulfide 2-8; SMILES CC(=O)N[C@@H](CC1CCCCC1)C(=O)N[C@H]1CSSC[C@@H](C(N)=O)NC(=O)CCCNC(=O)[C@H](Cc2c[nH]c3ccccc23)NC(=O)[C@H](CCCNC(=N)N)NC(=O)[C@@H](Cc2ccccc2)NC(=O)[C@H](Cc2c[nH]cn2)NC1=O) [Ac-Cha-c(Cys-His-D-Phe-Arg-Trp-Gaba-Cys)-NH2] |
| 0.931 nM | Ac-[hPhe]DH[d2Nal]RW[GABA]K-NH2 (lactam 2-8) [Ac-hPhe-c(Asp-His-D-2-Nal-Arg-Trp-Gaba-Lys)-NH2] |
| 0.998 nM | Ac-[Nle]CH[d2Nal]RW[Ahx]C-NH2 (disulfide 2-8) [Ac-Nle-c(Cys-His-D-2-Nal-Arg-Trp-Ahx-Cys)-NH2] |
| 1.23 nM | Ac-[Nle]CH[dF]RW[Ahx]C-NH2 (disulfide 2-8; SMILES CCCC[C@H](NC(C)=O)C(=O)N[C@H]1CSSC[C@@H](C(N)=O)NC(=O)CCCCCNC(=O)[C@H](Cc2c[nH]c3ccccc23)NC(=O)[C@H](CCCNC(=N)N)NC(=O)[C@@H](Cc2ccccc2)NC(=O)[C@H](Cc2c[nH]cn2)NC1=O) [Ac-Nle-c(Cys-His-D-Phe-Arg-Trp-Ahx-Cys)-NH2] |
| 1.41 nM | Ac-[Nle]C[dCha]H[dF]RWC-NH2 (disulfide 2-8; SMILES CCCC[C@H](NC(C)=O)C(=O)N[C@H]1CSSC[C@@H](C(N)=O)NC(=O)[C@H](Cc2c[nH]c3ccccc23)NC(=O)[C@H](CCCNC(=N)N)NC(=O)[C@@H](Cc2ccccc2)NC(=O)[C@H](Cc2c[nH]cn2)NC(=O)[C@@H](CC2CCCCC2)NC1=O) [Ac-Nle-c(Cys-D-Cha-His-D-Phe-Arg-Trp-Cys)-NH2] |
| 2.82 nM | Ac-[Cha]DH[d2Nal]RW[GABA]K-NH2 (lactam 2-8; SMILES CC(=O)N[C@@H](CC1CCCCC1)C(=O)N[C@H]1CC(=O)NCCCC[C@@H](C(N)=O)NC(=O)CCCNC(=O)[C@H](Cc2c[nH]c3ccccc23)NC(=O)[C@H](CCCNC(=N)N)NC(=O)[C@@H](Cc2ccc3ccccc3c2)NC(=O)[C@H](Cc2c[nH]cn2)NC1=O) [Ac-Cha-c(Asp-His-D-2-Nal-Arg-Trp-Gaba-Lys)-NH2] |
